# Source: paper PMC4263667, “Nanobody Mediated Inhibition of Attachment of F18 Fimbriae Expressing Escherichia coli” (PLoS ONE, 2014)
# T1: FedF_(15–165), N-terminal lectin domain of the F18 fimbrial tip adhesin FedF (Escherichia coli (F18-fimbriated …, NT647 on surface exposed amine groups (in the MST only)))
# T1 construct: also called FedF lectin domain
# T1 chain: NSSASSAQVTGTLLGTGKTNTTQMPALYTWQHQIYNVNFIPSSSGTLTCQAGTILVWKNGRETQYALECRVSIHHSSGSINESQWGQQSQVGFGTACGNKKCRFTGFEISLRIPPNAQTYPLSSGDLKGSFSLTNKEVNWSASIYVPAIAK
# B1: NbFedF7 (VHH)
# VHH: QVQLQESGGGSVQAGGSLRLSCTASGYTYRKYCMGWFRQAPGKEREGVACINSGGGTSYYADSVKGRFTISQDNAKDTVFLRMNSLKPEDTAIYYCALSSNSVCPPGHVAWYNDWGQGTQVTVSS
# notes: source: E. coli WK6, periplasmic extract, purified (Ni-NTA); not shown: His6, C-terminal, kept
# B2: NbFedF6 (VHH)
# VHH: QVQLQESGGGSVQAGGSLRLSCAASGYTSGRDSMGWFRQAPGKEREGVACIDTSGIVNYADSVKGRFTISQDSAKKTLYLEMNSLKPEDTALYSCATGPFVYGRGCLGQAFYSYWGQGTQVTVSS
# notes: as for B1
# B3: NbFedF9 (VHH)
# VHH: QVQLQESGGGSVQAGGSLRLSCAASGYTYSSNCMAWFRQVPGKEREGVASINTRGGITYYADSVKGRFTISRDNAKNTVSLQMNSLKPEDTATYYCAAVREATYSDNRCSVRSYTYDYWGQGTQVTVSS
# notes: as for B1
# B4: NbFedF12 (VHH)
# VHH: QVQLQESGGGSVQAGGSLRLSCAASGNTKSYWMGWFRQAPGKEREGVAVIAGGGAFTYYAESVKGRFTISQDNTKDTVYLAMNSLKPEDTALYYCALRTLNNGGIFLLNSPSSFHYWGQGTQVTVSS
# notes: source: E. coli WK6, periplasmic extract, purified (Ni-NTA)
# Target: T1, FedF_(15–165), N-terminal lectin domain …
# Test: MST
# Conditions: both partners purified
row,Binder,Kd
1,B1,5.25 nM
2,B2,3.57 nM
3,B3,1.58 nM
4,B4,29 nM
